This is an account of results in patent US20260139033A1 (PRANA THERAPIES, published 2026).

Where only a bound is given, the exact number is not on record here.

Assay [1] has as its target T1, recombinant human TSLP (human, UniProt Q969D9 29-159). The assay can be described thus: cell-based or functional assay.
The target in assay [2] is IL-4R on human donor PBMC (B-cells) (human, UniProt P24394 26-825). The assay can be described thus: cell-based or functional assay.
Assay [3] addresses T1, recombinant human TSLP. The assay can be described thus: SPR; column 'SPR (Biophysical binding): TSLP (pM)'. As for the experimental part:
(§1) SPR studies were carried out on a Biacore 3000 instrument with a CM5 chip at 25° C. The running buffer comprised 25 mM Hepes, pH 7.5, 150 mM NaCl, 0.5 mg/ml BSA, 0.005% P20. Antibodies were captured via protein A using approximately a 1/50 dilution of each antibody in the running buffer and a 2-minute contact time at a 10 μl/min flow rate. Protein A was immobilized on a CM5 chip via standard amine coupling chemistry in 10 mM acetate pH 4.5. Approximately 800 RU of each antibody was captured. The surfaces were regenerated via a 10 mM glycine pH 1.5 between cycles. Between assays the chip was regenerated with a 2-minute pulse of 100 mM Phosphoric acid. Prior to setting up multicycle kinetic analysis analyte concentration was determined spectrophotometrically using an extinction coefficient of 72,880 M⁻¹ cm⁻¹ for IL4R and 18450 M⁻¹ cm⁻¹ for the TSLP proteins respectively. Analyte samples were prepared by diluting stocks into running buffer to a final concentration of 500 nM for the IL-4R and 25 nM for TSLP followed by serially diluting with a 2-fold series with an association time of 2.5 minutes at a 50 μl/min flow rate. Dissociation data was collected for a period of 1600 seconds. Raw data was analyzed using the Scrubber2 (Biologic Software, AU) program using a double referencing procedure where compound signal is corrected to a blank surface and a buffer injection over the captured antibody surface. Kinetic data was analyzed by fitting to a simple 1:1 binding model. […] The candidates are further described in Table 3.
(In general: Surface plasmon resonance follows binding to a sensor surface in real time, without labels.)

In assay [4] the target is T1, recombinant human TSLP. As to the kind of experiment: SPR (Biacore 3000, CM5 chip, 25 C): complex captured via protein A, TSLP as analyte, 1:1 fit; column 'TSLP binding(pM)'. As for the experimental part: as §1

B1: Candidate-42: Heavy and Light chain C-terminal TRAP: Dupilumab-YTE_Linker-GS4_TSLP TRAP 2 [4 x TRAP 2] (bispecific antibody, human IgG4 S228P, kappa)
heavy: EVQLVESGGGLEQPGGSLRLSCAGSGFTFRDYAMTWVRQAPGKGLEWVSSISGSGGNTYYADSVKGRFTISRDNSKNTLYLQMNSLRAEDTAVYYCAKDRLSITIRPRYYGLDVWGQGTTVTVSSASTKGPSVFPLAPCSRSTSESTAALGCLVKDYFPEPVTVSWNSGALTSGVHTFPAVLQSSGLYSLSSVVTVPSSSLGTKTYTCNVDHKPSNTKVDKRVESKYGPPCPPCPAPEFLGGPSVFLFPPKPKDTLYITREPEVTCVVVDVSQEDPEVQFNWYVDGVEVHNAKTKPREEQFNSTYRVVSVLTVLHQDWLNGKEYKCKVSNKGLPSSIEKTISKAKGQPREPQVYTLPPSQEEMTKNQVSLTCLVKGFYPSDIAVEWESNGQPENNYKTTPPVLDSDGSFFLYSRLTVDKSRWQEGNVFSCSVMHEALHNHYTQKSLSLSLGGGGGSGGGGSGGGGSGGGGSESGYAQNGDLEDAELDDYSFSCYSQLEVNGSQHSLTCAFEDPDVNITNLEFEICGALVEVKCLNFRKLQEIYFIETKKFLLIGKSNICVKVGEKSLTCKKIDLTTIVKPEAPFDLSVVYREGANDFVVTFNTSHLQKKYVKVLMHDVAYRQEKDENKWTHVNLSSTKLTLLQRKLQPAAMYEIKVRSIPDHYFKGFWSEWSPSYYFRTPEINNSSGEMDGGSGGSGGSGGSGGSGGSGGSGGSGGSGGSGGSGGSGGSGGSGGSGGSGGSGGSGGSGGSGAAEGVQIQIIYFNLETVQVTWNASKYSRTNLTFHYRFNGDEAYDQCTNYLLQEGHTSGCLLDAEQRDDILYFSIRNGTHPVFTASRWMVYYLKPSSPKHVRFSWHQDAVTVTCSDLSYGDLLYEVQYRSPFDTEWQSKQENTCNVTIEGLDAEKCYSFWVRVKAMEDVYGPDTYPSDWSEVTCWQRGEIRDACAETPTPPKPKLSK
light: DIVMTQSPLSLPVTPGEPASISCRSSQSLLYSIGYNYLDWYLQKSGQSPQLLIYLGSNRASGVPDRFSGSGSGTDFTLKISRVEAEDVGFYYCMQALQTPYTFGQGTKLEIKRTVAAPSVFIFPPSDEQLKSGTASVVCLLNNFYPREAKVQWKVDNALQSGNSQESVTEQDSKDSTYSLSSTLTLSKADYEKHKVYACEVTHQGLSSPVTKSFNRGECGGGGSGGGGSGGGGSGGGGSESGYAQNGDLEDAELDDYSFSCYSQLEVNGSQHSLTCAFEDPDVNITNLEFEICGALVEVKCLNFRKLQEIYFIETKKFLLIGKSNICVKVGEKSLTCKKIDLTTIVKPEAPFDLSVVYREGANDFVVTFNTSHLQKKYVKVLMHDVAYRQEKDENKWTHVNLSSTKLTLLQRKLQPAAMYEIKVRSIPDHYFKGFWSEWSPSYYFRTPEINNSSGEMDGGSGGSGGSGGSGGSGGSGGSGGSGGSGGSGGSGGSGGSGGSGGSGGSGGSGGSGGSGGSGAAEGVQIQIIYFNLETVQVTWNASKYSRTNLTFHYRFNGDEAYDQCTNYLLQEGHTSGCLLDAEQRDDILYFSIRNGTHPVFTASRWMVYYLKPSSPKHVRFSWHQDAVTVTCSDLSYGDLLYEVQYRSPFDTEWQSKQENTCNVTIEGLDAEKCYSFWVRVKAMEDVYGPDTYPSDWSEVTCWQRGEIRDACAETPTPPKPKLSK
notes: The chains here are built from the component entries
As usually defined, the Kd is a measure of binding affinity in units of concentration. On to B1, for which the “IC50, inhibition of TSLP responses (TARC secretion) in human PBMCs” value in the assay with recombinant human TSLP [1] was determined as 2.37 nM. Also, the “IC50, CD23 upregulation on B cells of human PBMC in response to IL-4 (column 'Biological Assays: IL-4R (nM)')” value in assay [2] is greater than 200 nM. Moreover, the Kd in the assay with recombinant human TSLP [3] and with recombinant human TSLP [4] was 0.0162 nM each time.
